PMC5282582

Key:
[1] = target: the molecule itself; assay: SEC-MALS; 100 μl of purified protein injected at 2 mg/ml (low concentration); Superdex 200 10/300 GL, room temperature, 10 mM HEPES pH 7.4, 200 mM NaCl, 5 mM β-ME, 0.4 ml/min
[2] = target: T1, γ subunit of human NAD-dependent isocitrate dehydrogenase (human, UniProt P51553 40-393); assay: SDS-PAGE of the co-purified complex; subunits co-expressed in E. coli, purified as a complex by the His6 tag of β or γ (Ni-NTA, TEV cleavage, second Ni-NTA, gel filtration); 12% SDS-PAGE with Coomassie blue staining, intensity of the two bands; conditions: both partners purified
T1 construct: γ subunit of human NAD-IDH (IDH3G); the N-terminal 39 residues (mitochondrial signal peptide) were removed during construction; a TEV protease site stood between the subunit and the His6 tag; residues of the site may remain after cleavage; also called IDH3G; regulatory subunit; not shown: His6, C-terminal, cleaved
T1 sequence (looked up): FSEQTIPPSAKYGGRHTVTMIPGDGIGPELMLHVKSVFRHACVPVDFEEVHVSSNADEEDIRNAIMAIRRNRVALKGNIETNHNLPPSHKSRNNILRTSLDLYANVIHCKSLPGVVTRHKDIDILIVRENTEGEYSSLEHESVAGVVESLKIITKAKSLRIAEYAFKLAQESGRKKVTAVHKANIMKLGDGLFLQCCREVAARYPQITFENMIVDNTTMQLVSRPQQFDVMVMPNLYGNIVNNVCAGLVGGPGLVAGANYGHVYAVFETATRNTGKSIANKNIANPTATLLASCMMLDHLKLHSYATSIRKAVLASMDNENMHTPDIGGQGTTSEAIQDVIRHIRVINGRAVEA

[3] = target: β subunit of human NAD-dependent isocitrate dehydrogenase (human); assay: as above; conditions: both partners purified
β subunit of human NAD-dependent isocitrate dehydrogenase (human), sequence (chain, as listed by the source): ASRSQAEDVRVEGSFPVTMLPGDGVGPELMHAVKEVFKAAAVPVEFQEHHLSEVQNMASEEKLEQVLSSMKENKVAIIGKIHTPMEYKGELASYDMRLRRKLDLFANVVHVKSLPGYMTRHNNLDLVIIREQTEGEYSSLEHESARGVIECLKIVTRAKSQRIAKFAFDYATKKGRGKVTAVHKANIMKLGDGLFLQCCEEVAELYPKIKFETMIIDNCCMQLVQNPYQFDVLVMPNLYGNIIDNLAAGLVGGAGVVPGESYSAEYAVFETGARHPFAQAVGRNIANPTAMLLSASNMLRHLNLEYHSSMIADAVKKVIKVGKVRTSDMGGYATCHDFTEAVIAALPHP

B1: mutant α_(Y126F)βαγ heterotetramer of human NAD-dependent isocitrate dehydrogenase (complex)
chain 1: TGGVQTVTLIPGDGIGPEISAAVMKIFDAAKAPIQWEERNVTAIQGPGGKWMIPSEAKESMDKNKMGLKGPLKTPIAAGHPSMNLLLRKTFDLYANVRPCVSIEGYKTPYTDVNIVTIRENTEGEFSGIEHVIVDGVVQSIKLITEGASKRIAEFAFEYARNNHRSNVTAVHKANIMRMSDGLFLQKCREVAESCKDIKFNEMYLDTVCLNMVQDPSQFDVLVMPNLYGDILSDLCAGLIGGLGVTPSGNIGANGVAIFESVHGTAPDIAGKDMANPTALLLSAVMMLRHMGLFDHAARIEAACFATIKDGKSLTKDLGGNAKCSDFTEEICRRVKDLD
chain 2: not shown
chain 3: TGGVQTVTLIPGDGIGPEISAAVMKIFDAAKAPIQWEERNVTAIQGPGGKWMIPSEAKESMDKNKMGLKGPLKTPIAAGHPSMNLLLRKTFDLYANVRPCVSIEGYKTPYTDVNIVTIRENTEGEYSGIEHVIVDGVVQSIKLITEGASKRIAEFAFEYARNNHRSNVTAVHKANIMRMSDGLFLQKCREVAESCKDIKFNEMYLDTVCLNMVQDPSQFDVLVMPNLYGDILSDLCAGLIGGLGVTPSGNIGANGVAIFESVHGTAPDIAGKDMANPTALLLSAVMMLRHMGLFDHAARIEAACFATIKDGKSLTKDLGGNAKCSDFTEEICRRVKDLD
chain 4: FSEQTIPPSAKYGGRHTVTMIPGDGIGPELMLHVKSVFRHACVPVDFEEVHVSSNADEEDIRNAIMAIRRNRVALKGNIETNHNLPPSHKSRNNILRTSLDLYANVIHCKSLPGVVTRHKDIDILIVRENTEGEYSSLEHESVAGVVESLKIITKAKSLRIAEYAFKLAQESGRKKVTAVHKANIMKLGDGLFLQCCREVAARYPQITFENMIVDNTTMQLVSRPQQFDVMVMPNLYGNIVNNVCAGLVGGPGLVAGANYGHVYAVFETATRNTGKSIANKNIANPTATLLASCMMLDHLKLHSYATSIRKAVLASMDNENMHTPDIGGQGTTSEAIQDVIRHIRVINGRAVEA
- stoichiometry N [1]: 2

B2: mutant αβα_(Y126F)γ heterotetramer of human NAD-dependent isocitrate dehydrogenase (complex)
chain 1: TGGVQTVTLIPGDGIGPEISAAVMKIFDAAKAPIQWEERNVTAIQGPGGKWMIPSEAKESMDKNKMGLKGPLKTPIAAGHPSMNLLLRKTFDLYANVRPCVSIEGYKTPYTDVNIVTIRENTEGEYSGIEHVIVDGVVQSIKLITEGASKRIAEFAFEYARNNHRSNVTAVHKANIMRMSDGLFLQKCREVAESCKDIKFNEMYLDTVCLNMVQDPSQFDVLVMPNLYGDILSDLCAGLIGGLGVTPSGNIGANGVAIFESVHGTAPDIAGKDMANPTALLLSAVMMLRHMGLFDHAARIEAACFATIKDGKSLTKDLGGNAKCSDFTEEICRRVKDLD
chain 2: not shown
chain 3: TGGVQTVTLIPGDGIGPEISAAVMKIFDAAKAPIQWEERNVTAIQGPGGKWMIPSEAKESMDKNKMGLKGPLKTPIAAGHPSMNLLLRKTFDLYANVRPCVSIEGYKTPYTDVNIVTIRENTEGEFSGIEHVIVDGVVQSIKLITEGASKRIAEFAFEYARNNHRSNVTAVHKANIMRMSDGLFLQKCREVAESCKDIKFNEMYLDTVCLNMVQDPSQFDVLVMPNLYGDILSDLCAGLIGGLGVTPSGNIGANGVAIFESVHGTAPDIAGKDMANPTALLLSAVMMLRHMGLFDHAARIEAACFATIKDGKSLTKDLGGNAKCSDFTEEICRRVKDLD
chain 4: FSEQTIPPSAKYGGRHTVTMIPGDGIGPELMLHVKSVFRHACVPVDFEEVHVSSNADEEDIRNAIMAIRRNRVALKGNIETNHNLPPSHKSRNNILRTSLDLYANVIHCKSLPGVVTRHKDIDILIVRENTEGEYSSLEHESVAGVVESLKIITKAKSLRIAEYAFKLAQESGRKKVTAVHKANIMKLGDGLFLQCCREVAARYPQITFENMIVDNTTMQLVSRPQQFDVMVMPNLYGNIVNNVCAGLVGGPGLVAGANYGHVYAVFETATRNTGKSIANKNIANPTATLLASCMMLDHLKLHSYATSIRKAVLASMDNENMHTPDIGGQGTTSEAIQDVIRHIRVINGRAVEA
- stoichiometry N [1]: 2

B3: α subunit of human NAD-dependent isocitrate dehydrogenase (natural protein, UniProt P50213 28-366, looked up)
chain: TGGVQTVTLIPGDGIGPEISAAVMKIFDAAKAPIQWEERNVTAIQGPGGKWMIPSEAKESMDKNKMGLKGPLKTPIAAGHPSMNLLLRKTFDLYANVRPCVSIEGYKTPYTDVNIVTIRENTEGEYSGIEHVIVDGVVQSIKLITEGASKRIAEFAFEYARNNHRSNVTAVHKANIMRMSDGLFLQKCREVAESCKDIKFNEMYLDTVCLNMVQDPSQFDVLVMPNLYGDILSDLCAGLIGGLGVTPSGNIGANGVAIFESVHGTAPDIAGKDMANPTALLLSAVMMLRHMGLFDHAARIEAACFATIKDGKSLTKDLGGNAKCSDFTEEICRRVKDLD
notes: α subunit of human NAD-IDH (IDH3A); the N-terminal 27 residues (mitochondrial signal peptide) were removed during construction; cloned in the co-expression vector pQlinkN; gene bought from FulenGen in pReceiver-B01/B02; also called IDH3A; catalytic subunit
- stoichiometry N [2]: 1
- stoichiometry N [3]: 1
